Where two headings read alike, the source gives them in different places. Values belong to the molecule of their own block, whether it stands above or below them. Numbered stars: 1 amine (or outer) side, 2 acyl side, 3 side chain; on linkers, the order of the positions; unused ones are H or OH. Bridge positions count the residues as written; N and C are the ends. Square brackets hold non-standard residues; d marks the D form. Peptide text beside a SMILES is read from it. I, II: the chains in the order shown. X4 = O=C(O)CN1CCN(CC(=O)O)CC(Cc2ccc(NC(=S)NCCC(=O)N(CCOCCOCCOCCOCCC(=O)[*:1])CCOCCOCCOCCOCCC(=O)[*:2])cc2)N(CC(=O)O)CC1; X3 = CC(C)(C)OC(=O)NCCC(=O)N(CCOCCOCCOCCOCCC(=O)[*:1])CCOCCOCCOCCOCCC(=O)[*:2]; NOTA‑1 = 1,4,7-triazacyclononane-N,N',N''-triacetic acid phenyl thiourea; Pro(cis-4-Ph) = O=C(O)[C@@H]1C[C@H](c2ccccc2)CN1; Trp(5-F) = N[C@@H](Cc1c[nH]c2ccc(F)cc12)C(=O)O; Pro(trans-4-F) = O=C(O)[C@@H]1C[C@@H](F)CN1; Phe(4-F) = N[C@@H](Cc1ccc(F)cc1)C(=O)O; Phe(4-Me) = Cc1ccc(C[C@H](N)C(=O)O)cc1; Tic = O=C(O)[C@@H]1Cc2ccccc2CN1; Pip = O=C(O)[C@@H]1CCCCN1; Aze = O=C(O)[C@@H]1CCN1
Key:
[1] = biological target: human Granzyme B (hGranzyme B) (Homo sapiens, UniProt P10144); assay: Surface plasmon resonance (SPR) binding kinetics to hGranzyme B
Method: The kinetics of test peptide binding to human Granzyme B (hGranzyme B) was determined by SPR. All experiments were performed at 25° C. using the Biacore 8k+ instrument (Cytiva, Marlborough, MA). The Biacore 8k+ Insight Evaluation Software Version 3.0 was used to fit the data with a 1:1 binding model to determine the association rate constant ka (M^−1s^−1, where “M” ~equals molar and “s” ~equals seconds) and the dissociation rate constant kd (s^−1). These rate constants were used to calculate the equilibrium dissociation constant. KD (M)=kd/ka.
To measure the binding kinetics of peptides of interest, surfaces were prepared by a capture method to a Series S Streptavidin (SA) chip using a 1×HBS-EP+ running buffer (Cytiva). hGranzyme B was diluted to 10 μg/mL in IX HBS-EP+ and flowed over spot 2 of each flow cell on the chip at a flow rate of 10 ul/min for 20 s to achieve a level of capture of ~1100 RU. An unmodified spot 1 of each flow cell was used as a matrix binding control or reference surface. Binding kinetics were measured using single cycle kinetics at 25° C. by injecting 5 concentrations with 3-fold serial dilutions of test peptides from 0.01 μM to 1 μM. Compound dilutions were performed manually in a running buffer containing 1×HBS-EP+(Cytiva), and a final concentration of 2% DMSO. The interaction analyses over hGranzyme B, were performed using a 120 s association time and a 900 s dissociation time. All experiments were conducted at a flow rate of 50 μL/min with a data collection rate of 10 Hz.
Peptide dilution series included 2 zero concentration points (no compound) which were averaged and subtracted from the peptide concentration injection as DMSO control responses. Binding data acquired from the reference surface (matrix binding control) were subtracted from the binding data for hGranzyme B surface on the chip to determine specific binding. Next, the association phase data were solvent corrected to account for any signal fluctuation throughout the experiment due to subtle DMSO concentration differences. Corrected response data were analyzed using the Biacore 8k+ Evaluation Software Version 3.0 according to the manufacturer. SPR data for representative compounds of the disclosure are found in Table 8.

[2] = biological target: T1, human Granzyme B (human, UniProt P10144 21-247); assay: SPR, Biacore 8k+, hGranzyme B captured on SA chip, single cycle kinetics, 1:1 model
T1 construct: Captured on a Series S Streptavidin chip for SPR; also called hGranzyme B; GzmB
T1 sequence (P10144 21-247 limits assumed): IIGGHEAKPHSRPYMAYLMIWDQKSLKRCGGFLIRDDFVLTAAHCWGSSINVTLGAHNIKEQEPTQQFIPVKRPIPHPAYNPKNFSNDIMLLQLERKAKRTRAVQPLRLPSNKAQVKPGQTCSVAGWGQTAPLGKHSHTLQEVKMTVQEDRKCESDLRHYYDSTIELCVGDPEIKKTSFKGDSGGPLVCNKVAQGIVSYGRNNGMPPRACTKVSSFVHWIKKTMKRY

Molecule: C[C@@H]1NC(=O)[C@H](CO)NC(=O)[C@H](CCC(N)=O)NC(=O)[C@H](CC(=O)O)NC(=O)[C@H](CCC(=O)O)NC(=O)[C@H](Cc2ccccc2)NC(=O)[C@H](CC(N)=O)NC(=O)[C@H](Cc2ccccc2)NC(=O)CSC[C@@H](C(=O)NCC(=O)NCC(=O)N[C@@H](CCCCNC(=O)CCOCCOCCOCCOCCN(CCOCCOCCOCCOCCC(=O)NCCCC[C@H](NC(=O)CNC(=O)CNC(=O)[C@@H]2CSCC(=O)N[C@@H](Cc3ccccc3)C(=O)N[C@@H](CC(N)=O)C(=O)N[C@@H](Cc3ccccc3)C(=O)N[C@@H](CCC(=O)O)C(=O)N[C@@H](CC(=O)O)C(=O)N[C@@H](CCC(N)=O)C(=O)N[C@@H](CO)C(=O)N[C@@H](C)C(=O)N[C@@H](CC(=O)O)C(=O)N[C@@H]([C@@H](C)O)C(=O)N[C@@H](Cc3c[nH]c4ccccc34)C(=O)N[C@@H](CCC(N)=O)C(=O)N3CCC[C@H]3C(=O)N2)C(N)=O)C(=O)CCNC(=O)OC(C)(C)C)C(N)=O)NC(=O)[C@@H]2CCCN2C(=O)[C@H](CCC(N)=O)NC(=O)[C@H](Cc2c[nH]c3ccccc23)NC(=O)[C@H]([C@@H](C)O)NC(=O)[C@H](CC(=O)O)NC1=O [Compound 7a, (*F.N.F.E.D.Q.S.A.D.T.W.Q.P.*C.G.G.K.NH2)-bis(PEG4)-β-Ala(Boc)-(*F.N.F.E.D.Q.S.A.D.T.W.Q.P.*C.G.G.K.NH2)] (I: {CH2CO}-FNFEDQSADTWQPCGGK-NH2 / II: {CH2CO}-FNFEDQSADTWQPCGGK-NH2; linker I:17-II:17 via X3; thioether I:N-I:14, II:N-II:14)
Kd ([1]; 25° C., 1:1 binding model, KD=kd/ka, read-out: Granzyme B SPR Kd): < 0.1 nM

Molecule: C[C@@H]1NC(=O)[C@H](CO)NC(=O)[C@H](CCC(N)=O)NC(=O)[C@H](CC(=O)O)NC(=O)[C@H](CCC(=O)O)NC(=O)[C@H](Cc2ccccc2)NC(=O)[C@H](CC(N)=O)NC(=O)[C@H](Cc2ccccc2)NC(=O)CSC[C@@H](C(=O)NCC(=O)NCC(=O)N[C@H](CCCCNC(=O)CCOCCOCCOCCOCCN(CCOCCOCCOCCOCCC(=O)NCCCC[C@@H](NC(=O)CNC(=O)CNC(=O)[C@@H]2CSCC(=O)N[C@@H](Cc3ccccc3)C(=O)N[C@@H](CC(N)=O)C(=O)N[C@@H](Cc3ccccc3)C(=O)N[C@@H](CCC(=O)O)C(=O)N[C@@H](CC(=O)O)C(=O)N[C@@H](CCC(N)=O)C(=O)N[C@@H](CO)C(=O)N[C@@H](C)C(=O)N[C@@H](CC(=O)O)C(=O)N[C@@H]([C@@H](C)O)C(=O)N[C@@H](Cc3c[nH]c4ccccc34)C(=O)N[C@@H](CCC(N)=O)C(=O)N3CCC[C@H]3C(=O)N2)C(N)=O)C(=O)CCNC(=S)Nc2ccc(CC3CN(CC(=O)O)CCN(CC(=O)O)CCN3CC(=O)O)cc2)C(N)=O)NC(=O)[C@@H]2CCCN2C(=O)[C@H](CCC(N)=O)NC(=O)[C@H](Cc2c[nH]c3ccccc23)NC(=O)[C@H]([C@@H](C)O)NC(=O)[C@H](CC(=O)O)NC1=O (stereo partly drawn) [Compound 8a, (*F.N.F.E.D.Q.S.A.D.T.W.Q.P.*C.G.G.K.NH2)-bis(PEG4)-β-Ala(NOTA-1)-(*F.N.F.E.D.Q.S.A.D.T.W.Q.P.*C.G.G.K.NH2)] (I: {CH2CO}-FNFEDQSADTWQPCGG[dK]-NH2 / II: {CH2CO}-FNFEDQSADTWQPCGG[dK]-NH2; linker I:17-II:17 via X4; thioether I:N-I:14, II:N-II:14)
Kd [1]: < 0.1 nM

Molecule: {CH2CO}-FNFEDQSPDTWQ[Pip]CG-NH2 (thioether N-14, also called 71aa) [Compound 71a]
Kd [2]: 19.6 nM

B1: Compound 23a (peptide)
peptide: {CH2CO}-FNFEDQSVDTWQPCGGK-NH2
modifications: thioether N-14
SMILES: CC(C)[C@@H]1NC(=O)[C@H](CO)NC(=O)[C@H](CCC(N)=O)NC(=O)[C@H](CC(=O)O)NC(=O)[C@H](CCC(=O)O)NC(=O)[C@H](Cc2ccccc2)NC(=O)[C@H](CC(N)=O)NC(=O)[C@H](Cc2ccccc2)NC(=O)CSC[C@@H](C(=O)NCC(=O)NCC(=O)N[C@@H](CCCCN)C(N)=O)NC(=O)[C@@H]2CCCN2C(=O)[C@H](CCC(N)=O)NC(=O)[C@H](Cc2c[nH]c3ccccc23)NC(=O)[C@H]([C@@H](C)O)NC(=O)[C@H](CC(=O)O)NC1=O
Kd [2]: 27.5 nM

Molecule: {CH2CO}-FNFEDQSADTWQPCGGK-NH2 (thioether N-14, also called 2b) [Compound 26a]
Kd [2]: 15.4 nM

Molecule: {CH2CO}-FNFEDQS[Aze]DTWQPCG-NH2 (thioether N-14) [Compound 75a]
Kd [2]: 28.3 nM

Molecule: {CH2CO}-FNFEDQS[Pip]DTWQPCG-NH2 (thioether N-14) [Compound 76a]
Kd [2]: 28.6 nM

B3: Compound 64a (peptide)
peptide: {CH2CO}-FNFEDQS[Tic]DTWQPCG-NH2
modifications: thioether N-14
SMILES: C[C@@H](O)[C@@H]1NC(=O)[C@H](CC(=O)O)NC(=O)[C@@H]2Cc3ccccc3CN2C(=O)[C@H](CO)NC(=O)[C@H](CCC(N)=O)NC(=O)[C@H](CC(=O)O)NC(=O)[C@H](CCC(=O)O)NC(=O)[C@H](Cc2ccccc2)NC(=O)[C@H](CC(N)=O)NC(=O)[C@H](Cc2ccccc2)NC(=O)CSC[C@@H](C(=O)NCC(N)=O)NC(=O)[C@@H]2CCCN2C(=O)[C@H](CCC(N)=O)NC(=O)[C@H](Cc2c[nH]c3ccccc23)NC1=O
Kd [2]: 8.1 nM

Continued by falling Kd [2], values first:

Kd [2]: 6.3 nM
B2: Compound 61a (peptide)
peptide: {CH2CO}-FNFEDQAPDTWQPCGGK-NH2
modifications: thioether N-14
SMILES: C[C@@H]1NC(=O)[C@H](CCC(N)=O)NC(=O)[C@H](CC(=O)O)NC(=O)[C@H](CCC(=O)O)NC(=O)[C@H](Cc2ccccc2)NC(=O)[C@H](CC(N)=O)NC(=O)[C@H](Cc2ccccc2)NC(=O)CSC[C@@H](C(=O)NCC(=O)NCC(=O)N[C@@H](CCCCN)C(N)=O)NC(=O)[C@@H]2CCCN2C(=O)[C@H](CCC(N)=O)NC(=O)[C@H](Cc2c[nH]c3ccccc23)NC(=O)[C@H]([C@@H](C)O)NC(=O)[C@H](CC(=O)O)NC(=O)[C@@H]2CCCN2C1=O

Kd [2]: 4.9 nM
B4: Compound 54a (peptide)
peptide: {CH2CO}-[Phe(4-F)]NFEDQSPDTWQPCG-NH2
modifications: thioether N-14
SMILES: C[C@@H](O)[C@@H]1NC(=O)[C@H](CC(=O)O)NC(=O)[C@@H]2CCCN2C(=O)[C@H](CO)NC(=O)[C@H](CCC(N)=O)NC(=O)[C@H](CC(=O)O)NC(=O)[C@H](CCC(=O)O)NC(=O)[C@H](Cc2ccccc2)NC(=O)[C@H](CC(N)=O)NC(=O)[C@H](Cc2ccc(F)cc2)NC(=O)CSC[C@@H](C(=O)NCC(N)=O)NC(=O)[C@@H]2CCCN2C(=O)[C@H](CCC(N)=O)NC(=O)[C@H](Cc2c[nH]c3ccccc23)NC1=O

Kd [2]: 4.6 nM
Molecule: {CH2CO}-FNFEDQSPDTWQ[Pro(cis-4-Ph)]CG-NH2 (thioether N-14) [Compound 50a]

Kd [2]: 4.5 nM
Molecule: {CH2CO}-FNFEDQSPDTWQ[Pro(trans-4-F)]CG-NH2 (thioether N-14) [Compound 49a]

Kd [2]: 4.4 nM
Molecule: {CH2CO}-FNFEDQSPDTWQPCGGK(NOTA‑1)-NH2 (thioether N-14) [Compound 13a]

Kd [2]: 4.1 nM
Molecule: {CH2CO}-FNFEDQSPDT[Trp(5-F)]QPCG-NH2 (thioether N-14) [Compound 47a]

Kd [2]: 3.1 nM
Molecule: {CH2CO}-[Phe(4-Me)]NFEDQSPDTWQPCG-NH2 (thioether N-14) [Compound 43a]
